Test results from paper doi:10.1101/826578.

Target: Timeless (optimised construct);Tipin (human;human, UniProt Q9UNS1;Q9BVW5 1-238+=GSTGST+331-1208;1-301, internal_change|)
Experiment: EMSA

Binder	binding result
dsG4 (dsGQ) (structured_DNA) DNA 1: ACGAGAGCTAGCACATTTTGAGGGTGGGTAGGGTGGGTAATTTTCACGTAGAACCTGT DNA 2: ACAGGTTCTACGTGATTTTTTTTTTTTTTTTTTTTTTTTTTTTTGTGCTAGCTCTCGT	binds
dsHP (structured_DNA) DNA 1: ACGAGAGCTAGCACATTTTGAGGCTGCGTTTCGCAGCCTCAATTTCACGTAGAACCTGT DNA 2: ACAGGTTCTACGTGATTTTTTTTTTTTTTTTTTTTTTTTTTTTTGTGCTAGCTCTCGT	no binding
